# Measured values from PMC7153833.
# Experiments:
# [1] = biological target: hyper-galactosylated (G2 F) variant of the mAb; assay: native MS
# [2] = biological target: α-2,6-sialic acid variant (ST6) of the mAb; assay: native MS
substance,measurement,setting,value
recombinant Human Fc gamma RIIIa/CD16a (V176) protein (from UniProt P08637 17-208) (receptor),fold change of binding affinity against G0 F,[1],1.5 fold
same,fold change of binding affinity against ST3,[2],1.72 fold
